Data on 41 sequences can be found in the nanobody polyreactivity screen of Harvey et al. (2022).

The nature of this series: yeast display, Sf9 membrane polyspecificity reagent, FACS + sequencing; frameworks hold sequencing errors. In outline:
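Nanobodies came from a synthetic yeast display library in Saccharomyces cerevisiae BJ5465, induced with galactose for 36–48 hours and stained for 1 hour at 4 °C with 10% biotinylated, detergent-solubilized Sf9 membrane reagent. Cells were enriched on streptavidin microbeads and then FACS-sorted, with low and high (top ~1%) gates set on anti-HA fluorescence for expression and streptavidin fluorescence for reagent binding. Each polyreactivity label reflects the gate a clone came from. Genes were amplified by colony PCR, sequenced by MiSeq 2 × 250 and filtered by CDR length.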
Take “QVQLVESVGGLVQAGGSLRFSCAASGRIFKWYAMGWYRQAPGKEREFVAGIRWGGGRTHYADSVKGRFTISRDNAKNTVYLQMNSLKPEDTAVYYCAADNRGNTVYYRNYYWGQGTQVTVSS”: the “polyreactivity (PSR sort gate)” value is “high polyreactivity”.
Regarding “QVQLVESVGGLVQAGGSLRLICAASGIIFKFNAMGWYRQAPGKEREFVAAIRWRGGSTYYADSVKGRFTISRDNAKNTVYLQMNSLKPEDTAVYYCAATYRTGYYYWGQGTQVTVSS”, the “polyreactivity (PSR sort gate)” value is “high polyreactivity”.
For the sequence “QVQLVESVGGLVQAGGSLRLSCAASGFIFSWYAMGWYRQAPGKERELVAAINSGGRTSYADSVKGRFTISRDNAKNTVYLQMNSLKPEDTAVYYCAAPVYYYNRARYSYDYWGQGTQVTVSS”, the “polyreactivity (PSR sort gate)” value is reported as “high polyreactivity”.
As for “QVQLVESVGGLVQAGGSLRLSCAASGFIFYRYAMGWYRKAPGKEWEFVAAINYSATSTYYADSVKGRFTISRDNAKNTVYLQMNSLKPEDTAVYYCAAKRVRRLSYETKYDYWGQGTQVTVSS”, the “polyreactivity (PSR sort gate)” value is on record as “high polyreactivity”.
As to “QVQLVESVGGLVQAGGSLRLSCAASGFILGYNAMGWYRQAPGKERELVADITFSGGGTNYADSVKGRFTISRDNAKNTVYLQMNSLKPEDTAVYDCNAAAFSQLRVRYDYWGQGTQVTVSS”, the “polyreactivity (PSR sort gate)” value is on record as “low polyreactivity”.
With “QVQLVESVGGLVQAGGSLRLSCAASGFTFGYYAMGWYRQAPGKERELVASISRSGGSTNYADSVKGRFTISRDNAKNTVYLQMNSLKPEDTAVYYCAKPLWDPKYDYWGQGTQVTVSS”, the “polyreactivity (PSR sort gate)” value is recorded as “high polyreactivity”.
As for “QVQLVESVGGLVQAGGSLRLSCAASGFTFNGYAMGWYRQAPGKERELVAAINISGGSTYYADSVKGRFTISRDNAKNTVYLQMNSLKPEDTAVYYCAARLWGIRYSYRYGYWGQGTQVTVSS”, the entry is “high polyreactivity”; as for “QVQLVESVGGLVQAGGSLRLSCAASGFTFRVNAMGWYIQAPGKERELVAAISSGGSTNYADTVKGRFTISRDNAKNTVYLQMNSLKPEDTAVYYCAKRFKYIYYWGQGTQVTVSS”, “high polyreactivity”; as for “QVQLVESVGGLVQAGGSLRLSCAASGFTSWDNDMGWYRQAPGKERELVAAISRGGSTNYADSVKGRFTISRDNAKNTVYLQMNSLKPEDTAVYYCATAAVTPVWYDYWGQGTQVTVSS”, “low polyreactivity”.
As to “QVQLVESVGGLVQAGGSLRLSCAASGGIFNGYAMGWYRQAPGKERELVAAITASGARTYYADSVKGRFTISRDNAKNTVYLQMNSLKPEDTAVYYCAKGFSYPGGPYYYFLGYGYWGQGTQVTVSS”, the “polyreactivity (PSR sort gate)” value is “high polyreactivity”.
As for “QVQLVESVGGLVQAGGSLRLSCAASGIILLYYALGWYRQAPGKERELVAAITTSGGRTYYADSVKGRFTISRDNAKNTVYLQMNSLKPEDTAVYYCAASTQGTYYPYKRYDYWGQGTQVTVSS”, the “polyreactivity (PSR sort gate)” value is listed as “high polyreactivity”.
As for “QVQLVESVGGLVQAGGSLRLSCAASGITFSTNAMGWYRQAPGKERELVAAITSVTSTYYADSVKGRFTISRDNAKNTVYLQMNSLKPEDTAVYYCASRLSRWPYFYEYNYWGQGTQVTVSS”, the entry is “low polyreactivity”.
The entry for “QVQLVESVGGLVQAGGSLRLSCAASGITFTVYAMGWYRQAPGKERELVAAISSSGSTTYADSVKGRFTISRDNAKNTVYLQMNSLKPEDTAVYYCAAYSDYYLDQWYGYWGQGTQVTVSS” is “low polyreactivity”; for “QVQLVESVGGLVQAGGSLRLSCAASGITFYDNAMGWYRQAPGKERELVAGISYSGGRTYYADSVKGRFTISRDNAKNTVYLQMNSLKPEDTAVYYCNARFGKYRSRQGYYYWGQGTQVTVSS” it is “high polyreactivity”; for “QVQLVESVGGLVQAGGSLRLSCAASGITSYRYTKGWYRQAPGKARELVAAITISGGRTYYGDSVKGRFTISRDNAKNTVYLQLNSLKPEDTAVYYCAAGWRSGFDYWGQGTQVTVSS” it is “high polyreactivity”.
The entry for “QVQLVESVGGLVQAGGSLRLSCAASGLNFSYYAMGWYRQAPGKERELVAAIDWISGSTYYADSVKGRFTISRDNAKNTVYLQMNSLKPEDTAVYYCAAYGSFWYAGFGYWGQGTQVTVSS” is “low polyreactivity”; for “QVQLVESVGGLVQAGGSLRLSCAASGLTFWYYAMGCYRQAPGKERELVARITRSGVGTYYADSVKGRFTISRDNAKNTVYLQMNSLKAEDTAVYYCNARYQYSWVRYGYDYWGQGTQVTVSS” it is “high polyreactivity”; for “QVQLVESVGGLVQAGGSLRLSCAASGNIFYSYDMGWYRQAPGKERELVATISYRGTSTNYADSVKGRFTISRDNAKNTVYLQMNSLKPEDTAVYYCASDRGSHFARGSAYDYWGQGTQVTVSS” it is “low polyreactivity”.
As for “QVQLVESVGGLVQAGGSLRLSCAASGNTFRYNTMGWYRQAPGKERELVAVITRRGSSTYYADSVKGRFTISRDNAKNTVYLQMNSLKPEDTAVYYCAAGYGRYGYVYSGYGKWEDYWGQGTQVTVSS”, the “polyreactivity (PSR sort gate)” value is given as “high polyreactivity”.
For “QVQLVESVGGLVQAGGSLRLSCAASGRIFFYYGRGWYRQAPGKERELVAAITKRSSSTYYADSVKGRFTISRDNAKNTVYLQMNSLKPEDTAVYYCNAYPYRYVRRMDYWGQGTQVTVSS”, the “polyreactivity (PSR sort gate)” value is on record as “high polyreactivity”.
Regarding “QVQLVESVGGLVQAGGSLRLSCAASGRIFGWYAMGWYRQAPGKERELVAAITSGGTTYYADSVKGRFTISRDNAKNTVYLQMNSLKPEDTAVYYCAKYHWRLSFSRYPYDYWGQGTQVTVSS”, the “polyreactivity (PSR sort gate)” value is recorded as “high polyreactivity”.
For the sequence “QVQLVESVGGLVQAGGSLRLSCAASGRIFNYNAMGWYRQAPGKERELVAAITSSGDSTNYADSVKGRFTISRDNAKNTVYLQMNSLKPEDTAVYYCNASSPYDYDWGQGTQVTVSS”, the “polyreactivity (PSR sort gate)” value was “low polyreactivity”.
As for “QVQLVESVGGLVQAGGSLRLSCAASGRIFVYYAMGWYRQAPGKERELVAAINSSGGRTYYADSVKGRVTISRDNAKNTVSLQMNSLQPEDTAVYYCAAVYRSWTSSNGRNYWGQGTQVTVAS”, the “polyreactivity (PSR sort gate)” value is reported as “high polyreactivity”.
The entry for “QVQLVESVGGLVQAGGSLRLSCAASGRIFYFYAMGWYRQAPGKERELVASISSGSSTNYADSVKGRFTISRDNAKNTVYLQMNSLKPEDTAVYYCAAQPWHGSRPRSYYWGQGTQVTVSS” is “high polyreactivity”.
Turning to “QVQLVESVGGLVQAGGSLRLSCAASGRILRTNALGWYRKAPGKERELVAAISSDGSTYYADSVKGRFTISRDNAKNTVYLQMNSLKPEDTAVYYCAARLFYRGPRFDYWGQGTQVTVSS”, the “polyreactivity (PSR sort gate)” value is “low polyreactivity”.
In the case of “QVQLVESVGGLVQAGGSLRLSCAASGRIYAMGLYRPAPGKERELVAAISRGGSTYYADSVKGRFTISRDNAKNTVYLQMNSLKPEDSAVYYCARRYASTGYDYWGQGTQVTESS”, the “polyreactivity (PSR sort gate)” value is on record as “high polyreactivity”.
As to “QVQLVESVGGLVQAGGSLRLSCAASGRTFKFYAMGWYRQAPGKERELVAAISSSGGRTYYADSVKGRFTISRDIAKNTVYLQMNSLKPVDTAVYYCARSSDYYFFGHYYWGQGTQVTVSS”, the “polyreactivity (PSR sort gate)” value is listed as “high polyreactivity”.
In the case of “QVQLVESVGGLVQAGGSLRLSCAASGRTFWYYSMGWDREAPGKERELVAAITSGGSTNYADSVKGRFTISRDNAKNTVYLQIYSLKPEDTAVYYCDTDNPVFEYYYWGQGTQVTVSS”, the “polyreactivity (PSR sort gate)” value is recorded as “low polyreactivity”.
With “QVQLVESVGGLVQAGGSLRLSCAASGRTFYGYAMGWYRKAPGKERELVAAISTGGGRTYYADSVKGRFTISRDNAKNTVYLQMNSLKPEDTAVYYCAARRAYPHYRVDYWGQGTQVTVSS”, the “polyreactivity (PSR sort gate)” value is reported as “high polyreactivity”.
The entry for “QVQLVESVGGLVQAGGSLRLSCAASGRTLGKYAMGWYIQAPGKERELVAAIRWTGTSTYYADSVKGRFTISRDNAKNTVYLQMNSLKPEDTAVYYCAKGTVHSRPDFGRGWYRWDDYWGQGTQVTVSS” is “high polyreactivity”; for “QVQLVESVGGLVQAGGSLRLSCAASGSIFDVNAMGWYRQAPGKERELVAAITSSGGSTYYADSVKGRFTISRDNAKNTVYLQMNSLKPEDTAVYYCAAYSLYTMYWGQGTQVTVSS” it is “low polyreactivity”.
The entry for “QVQLVESVGGLVQAGGSLRLSCAASGSIFFNYTMGWYRQAPGKERELVAAINSSGGRTNYADSVKGRFTISRDNAKNTVYLQMNSLKPEDTAVYYCAAVYYDVWYVYWGQGTQVTVSS” is “low polyreactivity”; for “QVQLVESVGGLVQAGGSLRLSCAASGSIFNRYAMGRYRQAPGKERELVAAISTHTGTTYYADSVKGRFTISRDNAKNTVYLQMNSLKPEDTAVYYCAKRSRYGYGKSYDYWGQGTQVTVSS” it is “high polyreactivity”.
On to “QVQLVESVGGLVQAGGSLRLSCAASGSIFRSYAMGWYRQAPGKERELVAAISWSGASTYYADSVKGRFTISRDNAKNTVYLQMNSLKPEDTAVYYCAARPRYWRWYSGDYWGQGTQVTVSS”, for which the “polyreactivity (PSR sort gate)” value was “high polyreactivity”.
Regarding “QVQLVESVGGLVQAGGSLRLSCAASGSIFYGYAMGWYRQAAGKEREFVAAITFSATSTYYADSVKGRFTISRDNAKNTVYLQMNSLKPEVTAVYYCNASHVSHYRARDYWGQGTQVTVSS”, the “polyreactivity (PSR sort gate)” value is reported as “low polyreactivity”.
The entry for “QVQLVESVGGLVQAGGSLRLSCAASGSIIYHYPMGWYRHAPGKEAELVAAIYTTAGDTYYADSVKGRFTISRDNAKNTVYLQMNCLKPEDTAVYYCNASSSYFYYVRYDHWGQGTQVTVSS” is “low polyreactivity”; for “QVQLVESVGGLVQAGGSLRLSCAASGSILQHYAMGWYRQAPGKETELVASISWTGGSTYYADSVKGRFTISRDNAKNTVYLQMNCLKPEDTAVYYCAARRYRYYSRGSWGQGTQVTVSS” it is “high polyreactivity”; for “QVQLVESVGGLVQAGGSLRLSCAASGSISIRNAMGWYRQAPGKERELVAAITYSGGSTYYADSVKGRFTISRDNAKNTVYLQMNSLKPEDTAVYYCNKDTYLATYLYDYWGQGTQVTVSS” it is “low polyreactivity”.
Turning to “QVQLVESVGGLVQAGGSLRLSCAASGSNFKYYAMGWYRQAPGKERELVAAITIGGNTNYADSVKGRFTISRDNAKNTVYLQMNSLKPEDTAVYYCATGGYYSAIVYGGYDYWGQGTQVTVSS”, the “polyreactivity (PSR sort gate)” value is on record as “low polyreactivity”.
Consider “QVQLVESVGGLVQAGGSLRLSCAASGSTFALNAMGWYRQAPGKERELVAAISYSGGSTYYADSVKGRFTISRDNAKNTVYLQINSLKPDDTAVYYCNAEVYFSGWVLYYYWGQGTQVTVSS”, for which the “polyreactivity (PSR sort gate)” value is reported as “high polyreactivity”.
For the sequence “QVQLVESVGGLVQAGGSLRLSCAASGSTFGHNAMGWYRQAPGKERELVAVITSGGSTYYADSVKGRFTISRDNAKNTVYLQMNSLKPEDTAVYYCAKRYWSRGSKSSPYAYDYWGQGTQVTVSS”, the “polyreactivity (PSR sort gate)” value was “high polyreactivity”.
